Substrate in the series: O=CCO
Kind of series: HPLC of erythrulose formation, initial velocities, Michaelis-Menten fit. The series is classed as biochemical, Escherichia coli. Conditions: 50 mM HPA, 1.36 mM ThDP, 5.1 mM MgCl2, 33 mM Tris.HCl, pH 7.0, assay 21 °C, pre-incubated 15 min at 21 °C, standard error in parentheses. The text has this: HPLC of erythrulose formation, initial velocities, Michaelis-Menten fit on WT transketolase (WT TK)

B1: WT transketolase (WT TK) (Escherichia coli K-12) (protein)
chain: MSSRKELANAIRALSMDAVQKAKSGHPGAPMGMADIAEVLWRDFLKHNPQNPSWADRDRFVLSNGHGSMLIYSLLHLTGYDLPMEELKNFRQLHSKTPGHPEVGYTAGVETTTGPLGQGIANAVGMAIAEKTLAAQFNRPGHDIVDHYTYAFMGDGCMMEGISHEVCSLAGTLKLGKLIAFYDDNGISIDGHVEGWFTDDTAMRFEAYGWHVIRDIDGHDAASIKRAVEEARAVTDKPSLLMCKTIIGFGSPNKAGTHDSHGAPLGDAEIALTREQLGWKYAPFEIPSEIYAQWDAKEAGQAKESAWNEKFAAYAKAYPQEAAEFTRRMKGEMPSDFDAKAKEFIAKLQANPAKIASRKASQNAIEAFGPLLPEFLGGSADLAPSNLTLWSGSKAINEDAAGNYIHYGVREFGMTAIANGISLHGGFLPYTSTFLMFVEYARNAVRMAALMKQRQVMVYTHDSIGLGEDGPTHQPVEQVASLRVTPNMSTWRPCDQVESAVAWKYGVERQDGPTALILSRQNLAQQERTEEQLANIARGGYVLKDCAGQPELIFIATGSEVELAVAAYEKLTAEGVKARVVSMPSTDAFDKQDAAYRESVLPKAVTARVAVEAGIADYWYKYVGLNGAIVGMTTFGESAPAELLFEEFGFTVDNVVAKAKELL
notes: full length, N-terminal His6 tag (plasmid pQR791), Ni-NTA purified, tag cleavage not mentioned; homodimer of 73-74 kDa monomers; WT expressed in E. coli XL10-Gold, variants in E. coli C321.dA.exp
For orientation: Vmax means the top rate of the reaction or transport when substrate is in excess. Broadly, the kcat is the number of substrate molecules converted per active site and unit of time at saturation. The term kcat/Km denotes the second-order rate constant that governs catalysis at low substrate concentration. In the case of B1, the Km is 22 (3) mM, the Vmax came out at 4600 µM/min, the kcat stood at 53.3 s⁻¹ and the kcat/Km was 2500 M⁻¹ s⁻¹.

The values are drawn from article PMC11564776, “Enzyme stabilisation due to incorporation of a fluorinated non-natural amino acid at the protein surface” (Scientific Reports, 2024).
